Source: patent US11833164B2, “Methods of treating Fabry disease in patients having a mutation in the GLA gene” (Amicus Therapeutics, Inc., priority 2019, dated 2023)
Where a chain is given by its changes, count along the chain named. Numbers in names are those of the source.

Experiments:
[1] = test system: mutant form of α-Gal A expressed in HEK-293 cells; test: HEK assay (GLP HEK / Migalastat Amenability Assay): α-Gal A activity in lysates of transiently transfected HEK-293 cells incubated with or without 10 μM migalastat; format: cell-based, human; conditions: for Absolute increase (% WT) / Relative increase: 10 μM migalastat versus baseline; for Baseline α-Gal A activity (% WT): absence of migalastat; for Baseline α-Gal A activity (% WT) / 10 μM migalastat α-Gal A activity (% WT): percentage of baseline wild-type α-Gal A activity; for Baseline α-Gal A activity (% WT) / Baseline α-Gal A activity / 10 μM migalastat α-Gal A activity / 10 μM migalastat α-Gal A activity (% WT): mean ± SEM; for Baseline α-Gal A activity / 10 μM migalastat α-Gal A activity: lysates of HEK-293 cells transiently transfected with the mutant form; for Baseline α-Gal A activity: incubated 5 days in absence of migalastat; for 10 μM migalastat α-Gal A activity: incubated 5 days with 10 μM migalastat; for 10 μM migalastat α-Gal A activity (% WT): with 10 μM migalastat
In short: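 Activity reported as 4-MU released (nmol/mg/hr), mean±SEM, from lysates of transiently transfected HEK-293 cells expressing mutant α-Gal A, cultured with or without 10 μM migalastat.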

[2] = test system: active site of wild-type α-Gal A and specific mutant forms of α-Gal A; conditions: selective and reversible binding; cited from earlier work

OC[C@H]1NC[C@H](O)[C@@H](O)[C@H]1O [migalastat, (2R,3S,4R,5S)-2-(hydroxymethyl) piperdine-3,4,5-triol, reference compound]
in vitro response to incubation with migalastat (amenability criteria) ([1]; novel α-Gal A mutations listed in Table 2, HEK-293 lysates, 10 μM migalastat, 5 days): met amenability criteria
binding to the active site of α-Gal A [2]: high affinity

B1: A370V (protein)
chain: MQLRNPELHLGCALALRFLALVSWDIPGARALDNGLARTPTMGWLHWERFMCNLDCQEEPDSCISEKLFMEMAELMVSEGWKDAGYEYLCIDDCWMAPQRDSEGRLQADPQRFPHGIRQLANYVHSKGLKLGIYADVGNKTCAGFPGSFGYYDIDAQTFADWGVDLLKFDGCYCDSLENLADGYKHMSLALNRTGRSIVYSCEWPLYMWPFQKPNYTEIRQYCNHWRNFADIDDSWKSIKSILDWTSFNQERIVDVAGPGGWNDPDMLVIGNFGLSWNQQVTQMALWAIMAAPLFMSNDLRHISPQAKALLQDKDVIAINQDPLGKQGYQLRQGDNFEVWERPLSGLAWAVAMINRQEIGGPRSYTIAVVSLGKGVACNPACFITQLLPVKRKLGFYEWTSRLRSHINPTGTVLLQLENTMQMSLKDLL
Absolute increase (% WT) [1]: 20.6 % WT
Relative increase [1]: 1.5
Baseline α-Gal A activity (% WT) [1]: 40.1 ± 3.1 % WT
Baseline α-Gal A activity [1]: 15754 ± 1222 nmol/mg/h
10 μM migalastat α-Gal A activity [1]: 24151 ± 1591 nmol/mg/h
10 μM migalastat α-Gal A activity (% WT) ([1]; 5 days): 60.7 ± 3.5 % WT

B2: A377S (protein)
chain: B1 chain with V370A, A377S
Absolute increase (% WT) [1]: 13.7 % WT
Relative increase [1]: 1.3
Baseline α-Gal A activity (% WT) [1]: 48.1 ± 2.3 % WT
Baseline α-Gal A activity [1]: 17737 ± 860 nmol/mg/h
10 μM migalastat α-Gal A activity [1]: 22793 ± 999 nmol/mg/h
10 μM migalastat α-Gal A activity (% WT) ([1]; 5 days): 61.8 ± 2.7 % WT

B3: S371T (protein)
chain: B1 chain with V370A, S371T
Absolute increase (% WT) [1]: 26.1 % WT
Relative increase [1]: 1.3
Baseline α-Gal A activity (% WT) [1]: 65 ± 3.3 % WT
Baseline α-Gal A activity [1]: 27962 ± 2785 nmol/mg/h
10 μM migalastat α-Gal A activity [1]: 37065 ± 2351 nmol/mg/h
10 μM migalastat α-Gal A activity (% WT) ([1]; 5 days): 91.1 ± 5 % WT

B4: G375R (protein)
chain: B1 chain with V370A, G375R
Absolute increase (% WT) [1]: 18.7 % WT
Relative increase [1]: 1.4
Baseline α-Gal A activity (% WT) [1]: 41.7 ± 1.9 % WT
Baseline α-Gal A activity [1]: 15302 ± 1157 nmol/mg/h
10 μM migalastat α-Gal A activity [1]: 22033 ± 1442 nmol/mg/h
10 μM migalastat α-Gal A activity (% WT) ([1]; 5 days): 60.4 ± 2.1 % WT

B5: V376E (protein)
chain: B1 chain with V370A, V376E
Absolute increase (% WT) [1]: 21.9 % WT
Relative increase [1]: 1.4
Baseline α-Gal A activity (% WT) [1]: 74 ± 4.6 % WT
Baseline α-Gal A activity [1]: 22992 ± 924 nmol/mg/h
10 μM migalastat α-Gal A activity [1]: 30929 ± 1635 nmol/mg/h
10 μM migalastat α-Gal A activity (% WT) ([1]; 5 days): 95.9 ± 3.8 % WT

B6: G373A (protein)
chain: B1 chain with V370A, G373A
Absolute increase (% WT) [1]: 12.4 % WT
Relative increase [1]: 1.3
Baseline α-Gal A activity (% WT) [1]: 40.8 ± 1.5 % WT
Baseline α-Gal A activity [1]: 14426 ± 630 nmol/mg/h
10 μM migalastat α-Gal A activity [1]: 18622 ± 1289 nmol/mg/h
10 μM migalastat α-Gal A activity (% WT) ([1]; 5 days): 53.2 ± 3.7 % WT

B7: V376G (protein)
chain: B1 chain with V370A, V376G
Absolute increase (% WT) [1]: 28.9 % WT
Relative increase [1]: 1.3
Baseline α-Gal A activity (% WT) [1]: 93.9 ± 4.6 % WT
Baseline α-Gal A activity [1]: 33903 ± 2255 nmol/mg/h
10 μM migalastat α-Gal A activity [1]: 44774 ± 2982 nmol/mg/h
10 μM migalastat α-Gal A activity (% WT) ([1]; 5 days): 122.9 ± 5.6 % WT

B8: G373C (protein)
chain: B1 chain with V370A, G373C
Absolute increase (% WT) [1]: 8.7 % WT
Relative increase [1]: 3.2
Baseline α-Gal A activity (% WT) [1]: 4.3 ± 0.2 % WT
Baseline α-Gal A activity [1]: 1744 ± 92 nmol/mg/h
10 μM migalastat α-Gal A activity [1]: 5543 ± 547 nmol/mg/h
10 μM migalastat α-Gal A activity (% WT) ([1]; 5 days): 13 ± 0.9 % WT

B9: V376M (protein)
chain: B1 chain with V370A, V376M
Absolute increase (% WT) [1]: 20.1 % WT
Relative increase [1]: 1.3
Baseline α-Gal A activity (% WT) [1]: 79.3 ± 2.7 % WT
Baseline α-Gal A activity [1]: 27547 ± 1431 nmol/mg/h
10 μM migalastat α-Gal A activity [1]: 34563 ± 1762 nmol/mg/h
10 μM migalastat α-Gal A activity (% WT) ([1]; 5 days): 99.4 ± 3.2 % WT

B10: K374R (protein)
chain: B1 chain with V370A, K374R
Absolute increase (% WT) [1]: 17.9 % WT
Relative increase [1]: 1.2
Baseline α-Gal A activity (% WT) [1]: 74.3 ± 4.8 % WT
Baseline α-Gal A activity [1]: 27984 ± 2321 nmol/mg/h
10 μM migalastat α-Gal A activity [1]: 34403 ± 2426 nmol/mg/h
10 μM migalastat α-Gal A activity (% WT) ([1]; 5 days): 92.2 ± 4.9 % WT

B11: K374I (protein)
chain: B1 chain with V370A, K374I
Absolute increase (% WT) [1]: 21.9 % WT
Relative increase [1]: 2.0
Baseline α-Gal A activity (% WT) [1]: 22.3 ± 1.3 % WT
Baseline α-Gal A activity [1]: 8194 ± 506 nmol/mg/h
10 μM migalastat α-Gal A activity [1]: 16076 ± 936 nmol/mg/h
10 μM migalastat α-Gal A activity (% WT) ([1]; 5 days): 44.2 ± 2.9 % WT

B12: K374T (protein)
chain: B1 chain with V370A, K374T
Absolute increase (% WT) [1]: 30.2 % WT
Relative increase [1]: 1.6
Baseline α-Gal A activity (% WT) [1]: 46.1 ± 2.8 % WT
Baseline α-Gal A activity [1]: 16418 ± 1050 nmol/mg/h
10 μM migalastat α-Gal A activity [1]: 26614 ± 1659 nmol/mg/h
10 μM migalastat α-Gal A activity (% WT) ([1]; 5 days): 76.2 ± 5.7 % WT

B13: K374E (protein)
chain: B1 chain with V370A, K374E
Absolute increase (% WT) [1]: 14.1 % WT
Relative increase [1]: 1.3
Baseline α-Gal A activity (% WT) [1]: 49.9 ± 3.6 % WT
Baseline α-Gal A activity [1]: 19699 ± 1718 nmol/mg/h
10 μM migalastat α-Gal A activity [1]: 24879 ± 2423 nmol/mg/h
10 μM migalastat α-Gal A activity (% WT) ([1]; 5 days): 64 ± 5.7 % WT

B14: A377P (protein)
chain: B1 chain with V370A, A377P
Absolute increase (% WT) [1]: 17.2 % WT
Relative increase [1]: 1.3
Baseline α-Gal A activity (% WT) [1]: 59.4 ± 2.6 % WT
Baseline α-Gal A activity [1]: 21842 ± 930 nmol/mg/h
10 μM migalastat α-Gal A activity [1]: 28189 ± 1292 nmol/mg/h
10 μM migalastat α-Gal A activity (% WT) ([1]; 5 days): 76.6 ± 3.5 % WT

B15: A377G (protein)
chain: B1 chain with V370A, A377G
Absolute increase (% WT) [1]: 16.1 % WT
Relative increase [1]: 1.2
Baseline α-Gal A activity (% WT) [1]: 71.6 ± 2.5 % WT
Baseline α-Gal A activity [1]: 26583 ± 1072 nmol/mg/h
10 μM migalastat α-Gal A activity [1]: 32517 ± 981 nmol/mg/h
10 μM migalastat α-Gal A activity (% WT) ([1]; 5 days): 87.7 ± 2.3 % WT

B16: V376L (protein)
chain: B1 chain with V370A, V376L
Absolute increase (% WT) [1]: 19.9 % WT
Relative increase [1]: 1.3
Baseline α-Gal A activity (% WT) [1]: 82.4 ± 3.4 % WT
Baseline α-Gal A activity [1]: 27275 ± 1181 nmol/mg/h
10 μM migalastat α-Gal A activity [1]: 34152 ± 1845 nmol/mg/h
10 μM migalastat α-Gal A activity (% WT) ([1]; 5 days): 102.3 ± 4.2 % WT

B17: S371C (protein)
chain: B1 chain with V370A, S371C
Absolute increase (% WT) [1]: 11.1 % WT
Relative increase [1]: 1.4
Baseline α-Gal A activity (% WT) [1]: 23.5 ± 1.3 % WT
Baseline α-Gal A activity [1]: 10189 ± 1078 nmol/mg/h
10 μM migalastat α-Gal A activity [1]: 14546 ± 1141 nmol/mg/h
10 μM migalastat α-Gal A activity (% WT) ([1]; 5 days): 34.7 ± 1.6 % WT
